Earlier results in patent publication US20040063697A1, “Compositions of cyclooxygenase-2 selective inhibitors and thrombolytic agents for the treatment or prevention of a vaso-occlusive event” (priority 2002, published 2004).

Experiments:
[1] = not given; remark: listed apart in the source
[2] = target: plasminogen (Homo sapiens, UniProt P00747)
Sequence of plasminogen (P00747 20-810 limits assumed): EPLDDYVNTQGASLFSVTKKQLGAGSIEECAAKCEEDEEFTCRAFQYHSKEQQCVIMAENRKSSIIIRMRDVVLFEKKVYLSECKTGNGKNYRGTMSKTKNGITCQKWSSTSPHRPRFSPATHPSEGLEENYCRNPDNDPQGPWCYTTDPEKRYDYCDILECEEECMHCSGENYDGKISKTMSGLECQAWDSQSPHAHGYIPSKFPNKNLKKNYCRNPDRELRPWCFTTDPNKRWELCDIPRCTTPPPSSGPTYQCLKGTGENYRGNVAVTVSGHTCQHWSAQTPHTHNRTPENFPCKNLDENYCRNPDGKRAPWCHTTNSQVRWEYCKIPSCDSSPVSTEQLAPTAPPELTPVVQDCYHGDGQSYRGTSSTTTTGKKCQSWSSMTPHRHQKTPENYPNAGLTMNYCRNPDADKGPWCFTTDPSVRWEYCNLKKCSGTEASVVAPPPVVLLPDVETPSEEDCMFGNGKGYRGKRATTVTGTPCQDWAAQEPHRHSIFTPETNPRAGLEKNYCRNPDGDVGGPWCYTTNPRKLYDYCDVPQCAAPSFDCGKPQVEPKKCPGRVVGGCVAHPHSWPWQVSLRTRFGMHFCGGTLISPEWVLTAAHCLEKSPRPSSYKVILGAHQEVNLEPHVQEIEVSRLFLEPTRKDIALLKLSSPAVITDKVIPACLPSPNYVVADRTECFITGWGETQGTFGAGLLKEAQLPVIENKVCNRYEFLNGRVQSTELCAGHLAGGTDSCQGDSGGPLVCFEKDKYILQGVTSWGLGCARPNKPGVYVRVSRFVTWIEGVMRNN

B1: Tenecteplase: human derivative of t-PA (protein, UniProt P00750 36-562, looked up, variant T103N N117Q K296A H297A R298A R299A)
Tissue-type plasminogen …: SYQVICRDEKTQMIYQQHQSWLRPVLRSNRVEYCWCNSGRAQCHSVPVKSCSEPRCFNGGTCQQALYFSDFVCQCPEGFAGKCCEIDTRATCYEDQGISYRGNWSTAESGAECTNWQSSALAQKPYSGRRPDAIRLGLGNHNYCRNPDRDSKPWCYVFKAGKYSSEFCSTPACSEGNSDCYFGNGSAYRGTHSLTESGASCLPWNSMILIGKVYTAQNPSAQALGLGKHNYCRNPDGDAKPWCHVLKNRRLTWEYCDVPSCSTCGLRQYSQPQFRIKGGLFADIASHPWQAAIFAAAAASPGERFLCGGILISSCWILSAAHCFQERFPPHHLTVILGRTYRVVPGEEEQKFEVEKYIVHKEFDDDTYDNDIALLQLKSDSSRCAQESSVVRTVCLPPADLQLPDWTECELSGYGKHEALSPFYSERLKEAHVRLYPSSRCTSQHLLNRTVTDNMLCAGDTRSGGPQANLHDACQGDSGGPLVCLNDGRMTLVGIISWGLGCGQKDVPGVYTKVTNYLDWIRDNMRP
- Elimination (in vivo): Hepatic
- Half-Life (in vivo): 20 to 25 min
- plasma clearance time and half-life (in words): lower plasma clearance time and a longer half-life
- Antigenicity ([1]; in vivo): No
- immune response ([1]; when administered to a human): no immune response is elicited
- Method of Plasminogen Activation [2]: Direct
